# Reference: the supplement of paper PMC7877785
# ± gives the uncertainty stated by the source.
# Assay: self-splicing fitness, log relative to wild type (ln ratio); higher = more splicing; Tetrahymena group I intron in knt gene, E. coli kanamycin selection, DiMSum; sequences stand for … in CUCUCU…GGAGGGAAAAGUUAUCAGGCAUGCACCUGGUAGCUAGUCUUUAAACCAAUAGAUUGCAUCGGUUUAAAAGGCAAGACCGUCAAAUUGCGGGAAAGGGGUCAACAGCCGUUCAGUACCAAGUCUCAGGGGAAACUUUGAGAUGGCCUUGCAAAGGGUAUGGUAAUAAGCUGACGGACAUGGUCCUAACCACGCAGCCAAGUCCUAAGUCAACAGAUCUUCUGUUGAUAUGGAUGCAGUUCACAGACUAAAUGUCGGUCGGGGAAGAUGUAUUCUUCUCAUAAGAUAUAGUCGGACCUCUCCUUAAUGGGAGCUAGCGGAUGAAGUGAUGCAACACUGGAGCCGCUGGGAACUAAUUUGUAUGCGAAAGUAUAUUGAUUAGUUUUGGAGUACUCGUGGUCG
# In short: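 Pooled colonies went to amplicon sequencing on an Illumina HiSeq 2500 after six replicate transformations. The plates were LB agar with 100 μg/mL carbenicillin, 50 μM IPTG and 0.2% rhamnose, with or without 25 μg/mL kanamycin, incubated overnight at 37°C or 30°C. The E. coli BL21(DE3) library had all eight P1ex-region intron nucleotides randomised, the intron placed in the knt kanamycin-resistance gene on pET-22b(+). DiMSum fitness is the error-weighted combination of replicate fold changes, kanamycin against none, normalised to wild type.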
sequence,measurement,setting,value
CGUAAGCAAUAUUACGAGUA,self-splicing fitness (ln),30 °C,-4.09 ± 0.39
same,self-splicing fitness (ln),37 °C,-1.93 ± 0.21
UGAAAGCAAUAUUACGAUCA,self-splicing fitness (ln),30 °C,-0.309 ± 0.084
same,self-splicing fitness (ln),37 °C,-0.381 ± 0.1
GUGCAGCAAUAUUACGAGGG,self-splicing fitness (ln),30 °C,-2.79 ± 0.21
same,self-splicing fitness (ln),37 °C,-1.87 ± 0.27
UUAGAGCAAUAUUACGGGAA,self-splicing fitness (ln),30 °C,-2.25 ± 0.16
same,self-splicing fitness (ln),37 °C,-0.296 ± 0.16
GAGUAGCAAUAUUACGUCAU,self-splicing fitness (ln),30 °C,-2.58 ± 0.13
same,self-splicing fitness (ln),37 °C,-1.47 ± 0.13
AACGAGCAAUAUUACGAGUG,self-splicing fitness (ln),30 °C,-1.64 ± 0.097
same,self-splicing fitness (ln),37 °C,-0.602 ± 0.12
UGUUAGCAAUAUUACGUACU,self-splicing fitness (ln),30 °C,0.199 ± 0.2
same,self-splicing fitness (ln),37 °C,0.344 ± 0.18
AAAAAGCAAUAUUACGAGCG,self-splicing fitness (ln),30 °C,-0.337 ± 0.12
same,self-splicing fitness (ln),37 °C,-0.566 ± 0.11
GCGUAGCAAUAUUACGUGCA,self-splicing fitness (ln),30 °C,-1.53 ± 0.12
same,self-splicing fitness (ln),37 °C,-1.02 ± 0.13
UGUUAGCAAUAUUACGGCAC,self-splicing fitness (ln),30 °C,-1.58 ± 0.47
same,self-splicing fitness (ln),37 °C,-1.51 ± 0.43
CCAGAGCAAUAUUACGGCUC,self-splicing fitness (ln),30 °C,-2.69 ± 0.23
same,self-splicing fitness (ln),37 °C,-2.76 ± 0.26
CCCUAGCAAUAUUACGGUGG,self-splicing fitness (ln),30 °C,-4.27 ± 0.29
same,self-splicing fitness (ln),37 °C,-1.93 ± 0.16
CUAUAGCAAUAUUACGCAGG,self-splicing fitness (ln),30 °C,-2.75 ± 0.34
CCGUAGCAAUAUUACGUCAC,self-splicing fitness (ln),30 °C,-1.02 ± 0.27
UUCGAGCAAUAUUACGGGGC,self-splicing fitness (ln),30 °C,-2.86 ± 0.27
same,self-splicing fitness (ln),37 °C,-1.48 ± 0.4
ACCUAGCAAUAUUACGCGUC,self-splicing fitness (ln),30 °C,-2.91 ± 0.27
same,self-splicing fitness (ln),37 °C,-0.412 ± 0.14
GUCUAGCAAUAUUACGUCUC,self-splicing fitness (ln),30 °C,0.162 ± 0.096
same,self-splicing fitness (ln),37 °C,-0.048 ± 0.096
CCGUAGCAAUAUUACGUACA,self-splicing fitness (ln),30 °C,-2.04 ± 0.14
same,self-splicing fitness (ln),37 °C,-1.8 ± 0.19
UAGUAGCAAUAUUACGGUAC,self-splicing fitness (ln),30 °C,-3.85 ± 0.48
UCUCAGCAAUAUUACGCGAC,self-splicing fitness (ln),37 °C,-2.37 ± 0.35
GAGAAGCAAUAUUACGAUAG,self-splicing fitness (ln),30 °C,-3.28 ± 0.14
same,self-splicing fitness (ln),37 °C,-2.28 ± 0.17
GCUCAGCAAUAUUACGGGGA,self-splicing fitness (ln),30 °C,-0.491 ± 0.054
same,self-splicing fitness (ln),37 °C,0.325 ± 0.075
UCGCAGCAAUAUUACGUCCU,self-splicing fitness (ln),30 °C,-1 ± 0.097
same,self-splicing fitness (ln),37 °C,-0.105 ± 0.092
CGUGAGCAAUAUUACGCUAC,self-splicing fitness (ln),37 °C,-0.816 ± 0.38
CGCCAGCAAUAUUACGAAGG,self-splicing fitness (ln),30 °C,-1.36 ± 0.11
same,self-splicing fitness (ln),37 °C,-1.9 ± 0.16
CACGAGCAAUAUUACGCAGA,self-splicing fitness (ln),37 °C,-2.28 ± 0.26
AGUGAGCAAUAUUACGUAGA,self-splicing fitness (ln),30 °C,-3.84 ± 0.23
same,self-splicing fitness (ln),37 °C,-3.38 ± 0.32
UACGAGCAAUAUUACGUCCG,self-splicing fitness (ln),30 °C,-2.29 ± 0.13
same,self-splicing fitness (ln),37 °C,-1.25 ± 0.17
GCUAAGCAAUAUUACGCGGC,self-splicing fitness (ln),30 °C,-0.424 ± 0.19
same,self-splicing fitness (ln),37 °C,-2.64 ± 0.5
ACGCAGCAAUAUUACGGAUA,self-splicing fitness (ln),30 °C,-3.47 ± 0.18
same,self-splicing fitness (ln),37 °C,-1.7 ± 0.12
AUACAGCAAUAUUACGCCGC,self-splicing fitness (ln),30 °C,-3.8 ± 0.27
same,self-splicing fitness (ln),37 °C,-2.19 ± 0.2
GGUAAGCAAUAUUACGAGUC,self-splicing fitness (ln),30 °C,-2.59 ± 0.16
same,self-splicing fitness (ln),37 °C,-0.851 ± 0.13
AAGUAGCAAUAUUACGGUUU,self-splicing fitness (ln),30 °C,-0.353 ± 0.064
same,self-splicing fitness (ln),37 °C,-0.458 ± 0.098
AGUUAGCAAUAUUACGACUG,self-splicing fitness (ln),30 °C,-0.637 ± 0.13
same,self-splicing fitness (ln),37 °C,-0.00615 ± 0.18
ACGGAGCAAUAUUACGCCUG,self-splicing fitness (ln),30 °C,-3.41 ± 0.2
same,self-splicing fitness (ln),37 °C,-1.52 ± 0.19
GUUAAGCAAUAUUACGAUGA,self-splicing fitness (ln),30 °C,-1.33 ± 0.17
same,self-splicing fitness (ln),37 °C,0.18 ± 0.11
GUACAGCAAUAUUACGAGUA,self-splicing fitness (ln),37 °C,-2.65 ± 0.31
ACAGAGCAAUAUUACGCCGU,self-splicing fitness (ln),30 °C,-2.59 ± 0.35
same,self-splicing fitness (ln),37 °C,-0.807 ± 0.33
GGUAAGCAAUAUUACGGUAG,self-splicing fitness (ln),30 °C,-3.72 ± 0.19
same,self-splicing fitness (ln),37 °C,-3.15 ± 0.23
UAGAAGCAAUAUUACGCGUC,self-splicing fitness (ln),30 °C,-2.53 ± 0.18
same,self-splicing fitness (ln),37 °C,-1.56 ± 0.18
